Laboratory results as given in US20240261378A1 (UNM RAINFOREST INNOVATIONS, published 2024).

Tests used:
[1] = target: T1, [35S] myc-HA-TRIM16 wild type (in vitro translated) (human, UniProt O95361 1-564, [35S]-methionine radiolabel); assay: GST pull-down of in vitro translated 35S-labelled TRIM
T1 construct: not shown: Myc-HA tag

[2] = target: T2, 35S-Myc-HA-TRIM21 (in vitro translated) (human, UniProt P19474 1-475, [35S]-methionine radiolabel); assay: as above
T2 construct: not shown: Myc-HA tag

[3] = target: Optineurin (UniProt Q96CV9 1-577, limits assumed); assay: GST-galectin-8 pull-down with Sequestosome 1-like receptors
[4] = target: T3, endogenous TRIM16 (human, UniProt O95361 1-564); assay: co-IP of endogenous proteins, HeLa lysates
T3 construct: Endogenous protein, immunoprecipitated from cell lysates

Sequence of Optineurin (Q96CV9 whole entry): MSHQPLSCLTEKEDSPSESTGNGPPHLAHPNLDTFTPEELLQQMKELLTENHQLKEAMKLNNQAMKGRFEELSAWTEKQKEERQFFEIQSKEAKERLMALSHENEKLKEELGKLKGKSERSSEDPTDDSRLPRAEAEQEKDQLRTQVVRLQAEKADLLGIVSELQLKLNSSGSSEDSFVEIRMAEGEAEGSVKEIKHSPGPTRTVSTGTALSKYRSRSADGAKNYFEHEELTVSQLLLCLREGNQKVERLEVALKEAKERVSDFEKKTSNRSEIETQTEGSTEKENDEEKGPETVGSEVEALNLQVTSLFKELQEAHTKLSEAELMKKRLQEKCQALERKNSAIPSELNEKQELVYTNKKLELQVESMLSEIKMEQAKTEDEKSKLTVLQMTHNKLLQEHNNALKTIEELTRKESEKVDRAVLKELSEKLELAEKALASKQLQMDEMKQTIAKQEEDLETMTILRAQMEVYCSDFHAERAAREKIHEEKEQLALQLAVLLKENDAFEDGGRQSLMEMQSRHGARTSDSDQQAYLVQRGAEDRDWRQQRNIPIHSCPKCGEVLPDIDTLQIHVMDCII
T2 sequence (P19474 whole entry): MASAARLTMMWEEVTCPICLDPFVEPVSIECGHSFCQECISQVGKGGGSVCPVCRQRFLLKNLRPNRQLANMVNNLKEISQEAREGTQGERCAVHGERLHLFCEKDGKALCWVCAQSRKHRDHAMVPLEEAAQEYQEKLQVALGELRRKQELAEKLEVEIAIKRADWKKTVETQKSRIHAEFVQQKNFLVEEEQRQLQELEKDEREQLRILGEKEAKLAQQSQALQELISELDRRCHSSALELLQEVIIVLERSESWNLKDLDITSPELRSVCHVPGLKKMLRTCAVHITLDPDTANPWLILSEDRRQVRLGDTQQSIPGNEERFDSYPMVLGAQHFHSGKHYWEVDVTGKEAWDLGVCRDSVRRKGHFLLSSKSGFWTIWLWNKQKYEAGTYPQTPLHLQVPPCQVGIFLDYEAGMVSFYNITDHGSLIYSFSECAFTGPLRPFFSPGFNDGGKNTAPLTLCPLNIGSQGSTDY

binding result [1] | binding result [2] | binding result [3] | binding result [4] | Binder
no binding | no binding | no binding | – | GST-Galectin-8 (other, not shown: GST tag (fusion expressed in E. coli SoluBL21)) MMLSLNNLQNIIYNPVIPFVGTIPDQLDPGTLIVIRGHVPSDADRFQVDLQNGSSMKPRADVAFHFNPRFKRAGCIVCNTLINEKWGREEITYDTPFKREKSFEIVIMVLKDKFQVAVNGKHTLLYGHRIGPEKIDTLGIYGKVNIHSIGFSFSSDLQSTQASSLELTEISRENVPKSGTPQLPSNRGGDISKIAPRTVYTKSKDSTVNHTLTCTKIPPMNYVSKRLPFAARLNTPMGPGRTVVVKGEVNANAKSFNVDLLAGKSKDIALHLNPRLNIKAFVRNSFLQESWGEEERNITSFPFSPGMYFEMIIYCDVREFKVAVNGVHSLEYKHRFKELSSIDTLEINGDIHLLEVRSW
– | – | – | binds | endogenous ULK1 (enzyme, UniProt O75385 1-1050, looked up) MEPGRGGTETVGKFEFSRKDLIGHGAFAVVFKGRHREKHDLEVAVKCINKKNLAKSQTLLGKEIKILKELKHENIVALYDFQEMANSVYLVMEYCNGGDLADYLHAMRTLSEDTIRLFLQQIAGAMRLLHSKGIIHRDLKPQNILLSNPAGRRANPNSIRVKIADFGFARYLQSNMMAATLCGSPMYMAPEVIMSQHYDGKADLWSIGTIVYQCLTGKAPFQASSPQDLRLFYEKNKTLVPTIPRETSAPLRQLLLALLQRNHKDRMDFDEFFHHPFLDASPSVRKSPPVPVPSYPSSGSGSSSSSSSTSHLASPPSLGEMQQLQKTLASPADTAGFLHSSRDSGGSKDSSCDTDDFVMVPAQFPGDLVAEAPSAKPPPDSLMCSGSSLVASAGLESHGRTPSPSPPCSSSPSPSGRAGPFSSSRCGASVPIPVPTQVQNYQRIERNLQSPTQFQTPRSSAIRRSGSTSPLGFARASPSPPAHAEHGGVLARKMSLGGGRPYTPSPQVGTIPERPGWSGTPSPQGAEMRGGRSPRPGSSAPEHSPRTSGLGCRLHSAPNLSDLHVVRPKLPKPPTDPLGAVFSPPQASPPQPSHGLQSCRNLRGSPKLPDFLQRNPLPPILGSPTKAVPSFDFPKTPSSQNLLALLARQGVVMTPPRNRTLPDLSEVGPFHGQPLGPGLRPGEDPKGPFGRSFSTSRLTDLLLKAAFGTQAPDPGSTESLQEKPMEIAPSAGFGGSLHPGARAGGTSSPSPVVFTVGSPPSGSTPPQGPRTRMFSAGPTGSASSSARHLVPGPCSEAPAPELPAPGHGCSFADPITANLEGAVTFEAPDLPEETLMEQEHTEILRGLRFTLLFVQHVLEIAALKGSASEAAGGPEYQLQESVVADQISLLSREWGFAEQLVLYLKVAELLSSGLQSAIDQIRAGKLCLSSTVKQVVRRLNELYKASVVSCQGLSLRLQRFFLDKQRLLDRIHSITAERLIFSHAVQMVQSAALDEMFQHREGCVPRYHKALLLLEGLQHMLSDQADIENVTKCKLCIERRLSALLTGICA
